Measured values published in the DeepSol protein solubility set.

Test: soluble on expression in E. coli; label from the status in PepcDB or PDB records

Sequence | soluble on expression in E. coli
MGSDKIHHHHHHMQEERSEKKIGPFKFQSNFEWKEFPQEEFEWFVKEVEKRFGLNLSSYKPQRVKRRTELLLRKYNVGYREYLNMLIKDKKYLDEFMDKMTINVTEFFRNPEKWWELRDEIIPLIAKNSLRMKFWSAGCSSGEEPYSLAILVHELNLSYKTRILATDIDIGVLRRAQEGIYEERAFVSTPKEYLEKYFEKLPDGRYRIKDSVKKIVEFKRHDLLKDPFEKNFDLIVCRNVVIYFEPEAKNELYRKFAESLKPGGFLFVGNTERIFNYKELGFEIYKPFIYRKVK | not soluble
MGSDKIHHHHHHMQIDDFASNLRLLCSTESSVSAVCRQIGVNRQQFSKYLSGAARPSPSNMRKIAVHFGVRPAEFMLPADEFESHPSVAGKLVGPSVTHSDRDGFESAFRGQTIPLRRYLGYYLSYFLTQSWENSIICAIVRLDEVNGLIRCRSLERSIDPDDGSLYLSKYDGRVAMLGNRIFVMEYQTLARDALVETVLYPVGRGQLQYLRGTTFGITSRQRTPFTSPVVWRYLDDFPTLRDVMRKVGRYDINSAKLDPTARSILLGGHNKGTD | not soluble
MGSDKIHHHHHHMQKNITSLSGLNWDDLKFFLEVARTRKVSSAARRLAVDYTTVSRRINSLETSLGTLLFEKSRNNGFIMTAEGQRLLGYAESIESTLHMACEQVSGSSVALSGHIRMGCTEGFGSFFITPQLSHFLDNYPSISVDILPLPHFISLSKREADIVIALERPEHGPYVCCKLCDYSLRLYATQEYLDNHAPIQRKADLSEHVFISYVDDLAFSSELLYLSNLLPNAQAQLRSTSVIAQYTAALQGRALAILPCFLAAQDPRLLPVLTEEVNITRQFWMYCREDLRKLKRITLLWDYIREVTELNKGFLLGENRAARFV | not soluble
MGSDKIHHHHHHMQMNLGLDVGYGDVKAVYQREGILEMLKFPTAIAYAEREVGDLSAFAGGEEYEYRGRKYFVGREALVGAFSTRSFEFMKRYSPLFVFKAVKKIHRRTGELVTDVAMGLPLSHYTEANLKELVPLLQRIEVGREVLELNARFYPQGLGVLADYRLSQAGDVNARTDRDMIILDIGFNTVDVIVVERGRIVKGESDTLERHGVSKISLDLAREIKVRMQLDLSEQESKDVLRQGRIRVYGAERDLAELVRESAEKYMDWLIQEVHSKWMARIQRAEKVIIAGGGAYYLQEHIPEEYLPLVHVPDHPEYANARGFLKALDVESGK | not soluble
MGSDKIHHHHHHMQNQKPSVSLIRATSYEREALKNSLVTLLEPFGGMAAFVKPGQRVLLKPNLLTGARPTKECTTRAELVYAVAQMVIAAGGKPFLGDSPAFGSAKGVAIANGYQPLIQELNLPIIDFHGKRYETVSENFNHLLLSKEVIEADVVINLPKVKSHAQLTLTLGVKNLFGCVPGKMKAWWHMEAGKDADRFGEMLVETARAINPDLTILDGIIGHEGNGPSGGEPRALGILAAASDIFALDRAMVEILNVPPHQVPTVAASQRLRVCPELADVEFPNLHPDLLKIYDWQLPDKLMPIDFAMPRVIKSTFKHFYIRFIKEPMSAYGKQ | not soluble
MGSDKIHHHHHHMQQSKEERVHDVFEKISDKYDVMNSVISFQRHKAWRKETMRIMDVKPGSKALDVCCGTADWTIALAEAVGEQGKVVGLDFSENMLSVGKQKVEALQLKQVELLHGNAMELPFEDNTFDYVTIGFGLRNVPDYMHVLKEMTRVVKPGGKVICLETSQPTMIGFRQGYILYFKYIMPLFGKLFAKSYKEYSWLQESASTFPGMKELANMFEKAGLERVQVKPFTFGVAAMHLGMKPESK | not soluble
MGSDKIHHHHHHMQSLSSHYHQLLGLPSNWEVENVNLSMSSRQVEIRLAFTGKQGECPICGQSCLIYDHAAEQRWRHLDTMQFETILVARLPRCQCKEHGVKTVQAPWAARHSRFTLLFESFAVELLLHCANIKAASRLLRLNWHTVNQIMRRAVQRGLVRRKTETVEYLGIDEKSFKAGQHDVTTLTDLGERRVLEVVEHRTTEATKELLASLNDSQQAGVKAVSVDMWKPFIHAVQELLPKADLVHDRFHISKYLNEAVDLVRRKECRQLDKAGDKRLIGSTYVWLRNPENMGEQQQAELGKLMDAEFRTGKAWSLKNMFRAFWQLGCADAGTFFFEYWSKRIDEVGLVPLTKVKELLQRHFGNVLTWFKHPITNAVSEGLNSKIQIVKASARGFHRFESYRIRILFYCGKLNMAIGS | not soluble
MGSDKIHHHHHHMQSNLVMFPIVEVVRPGTQVKETNSTDYEGAEQQFLLLLATEDLDDNLDRQAAIVSDFEQAVSRAINGAYKRECQDDLAHRFLQRILYRINRLNLFWFDDLRQYTNERSLYLSSCRNQIEAAWQKWELAQVDVAAIQKLDVKQALIDRADADLDPPLSAASRYIREEMSEAGYRQLLAIGSFDGLVEGSRLSRILGGAANEVQCTLVRVLLEEYGNGRLSRKHSTFFAQMLAEFGMNTTPEAYFDLVPWEVLACANHNFLLTERRRYYLRYSGGLTYFEVAGPAAYRNYLAAAQRLGLSNAAMGYWELHIREDERHGRWMLDDVALPLAQRYPDDAWELVLGYDQEKLMGDRAAEAVVRSTRQAESIN | not soluble
MGSDKIHHHHHHMQTLEQLTSPEHSAWITLSQWIDNARNHCEVIKKDQSSAERELFTMQMPTSSPMGAVIYETGGILIHYGWLRILGSGSFKLPRGLMDWNFSKSFSESGEKPKYLLVADDVIGGYFALNGGSLGNNIGKIYYYSSKDLTWHNLNFTYTEFLAWVLNGDVEAFYQGLFWKNWQDDVKQLDGNQVFVFTPDLNQDRKIAIDERQKQEVNIETHYQANFAEKNKFDLAYSVA | not soluble
MGSDKIHHHHHHMQTSHCLWQRKLVAFTSRSERMDENWKQQLATDSYGNPVRSISNLRLIFTLDENLSQIRYDTFCQDDVCFNPLFRNVNGNKIDEESVGKIQDYLERTYRLRLTQNKVFEILKTTSSERSFNPVQEFITQETWDGQPRIATAIIDYLGAEDMPLVREQTKLWFVAAVARVFSPGCKFDNVLTLPGPQGIGKSTFFKTISGKWFNDSFSFASGDKEKVETITNGWIIEISELNGLKRANDVEAAKAFLSRCSDYMRPAYGHKVVEFMRHNVFAATTNETNFLQGDNGNRRWWIIPVKGNGHVSDWLDCLQHSVPQLWAEAYTYYRQGMKLYLSPDMEIEANEIQMQHSNILVDPIMEDIEMYLEREVPVQYASWMIPTRLAYQKGAYSEPNSTMTSLNMVCARQIIEELPNDLVRRNTSKYTSQYINRLMSMIPNWKRSKQEKVKGLHPAYCDKTGRSKHPWVRVGTPSEEVCATLPSEPELPF | not soluble
MGSDKIHHHHHHMQVLGLCRFSYLGLGGFKVMHETLEERRAYLYAPARMEDRFRQFEAVTLPSVTGQTDPDFEFLVVIGECFPDSYRARLEDLVRGVPQVRIRAYPPLRHRTAMAQALDDHRRDMDAPCLQFRLDDDDGMARDFVARYREVAADTEALWRKHPAVAVDFNTGYVFRCGKRGIEISPFQFAYSAIALGVIVAPGHREGIMHFGHHKLWTVMPTITVPGEDMMLRGHNEFNDSRAKPGAKQFSYQPLDADEEAYFKARFNVDNARVREIFSAPMP | not soluble
MGSDKIHHHHHHMRAFVFPGQGSQYSGMAKDFSVYESSKEIFERSKKVLGFDITEIMNGDEETLKLTENAQPSIYITSYIAFLELEKRGILPDVVAGHSLGEYTALAVAGVYDFETGLYLVRKRGEYMSKALEPGKGTMAAVIGLNIETIEEVVNSIEGVYIANYNSHDQVVISGLKESVEKAMEILKEKGARRVVELMVSSPFHTPFLEYAREKMKEEVEKVDFKKPRWPIVMNSTAKPTENPEEIKRNIIEQITGPVLWKQSVDTMKKMGVTEFVEVGPKTVLKNLCRRMGANAKHFTEILSE | not soluble
MGSDKIHHHHHHMRELRYNPLTGQWIMVSAVRKNRPWRPRNFCPFCPGSEETGYGWEVLLLPNRFPMLSFDAPKPKNEDFYKKARAMGQCSVIVETPKHELRDLDELPREQMVKIVRMWIKITETLKENRNVAYLAIFRNKGEEIGVSLKHPHGQLYALPYIPLKVRLKIENSRRYYKRTGECIFCRIIKEEEKNGERTIYENDNFIVFMPFFASWPFEVHIYPKRHIQYLTDLKVNEIEDLAEVIQVTTATLNAVLDRQMPYAMMIFQAPFKGNYPFYHLHIEFYPILRDNGKVKYTAGIELGTWEFTYDGIPEENARKLKEACKKVSQRMSLKGKCI | not soluble
MGSDKIHHHHHHMRIAFSTLGCPQAPLHEVTALAREHRVDGLELRIHDDGIVSDHMDRSRREQVRASISRTGLTVLSLGSYIKVCQPGPDETVVRQLRTALELAADVGAEAVRVFPGAGTGPTTDHYGIAVTELDMRGSSRLAAAAPIAERLGLRLLLETHDSHPRGVDISRILAPFRAEDPVGAIWDVMHPWRFGEDPVQTAHQLGSHYQYVQFKDATMDRQTGNLTMTLPGAGDIPLQRILDLVVARTPTTEEPWISLEWEKAWHPELPGLPEALIAFKTLLGRPESDAALSGSPRRPGSAAGARRNGTL | not soluble
MGSDKIHHHHHHMRIDLSLKPTPVQFLKRLSEKYGFNIYVKRDDLTELVGSGNKIRKLEYLLWEALKKGATTVFTCGGLQSNHARATAYVSRRYGLKPVLFLRKGEKVLNGNLLLDILLGAEIVEVSPEEYERIDEIFDVHKKMREKKGEKVYVIPEGGSNSLGAFGYFNAVLEMKDQLNLESFDAIVCAVGSGGTIAGLSAGISFLEYHVPVVGVNVTTKNSDYFVGKVKRIISGMEEYGLRVNETVFEVVDDYRGPGYAIPSSEDVEILKEVASIEGIILDPVYTAKAFRGMIEMFRNSEKNVLFIHTGGIFGLFAQSRRLV | not soluble
MGSDKIHHHHHHMRILEINTEKGWRGGENQTLLALIGFRKLGHEAELLCFENSALHVQAAAAGFTCHPLTSSTKSIGFLMEYGKNYSILHTQTSKQLTYCILTKPFHNSKVILSRRVDFVPKGFFTLLKYNACDGIICVSGAIEKILKQSGIKTRTVVISDCVTEKTLNKTRAQELLQKLTISGKNIIGTTAALVPHKDPVTLVNAVNILRTKRSDFVLLHFGSGPLAATIQQFITDNNLQDYYKLIGFKERVEDYFSIFNYFVMSSQEEGLGSSVLDAFVYKVPVVSTNAGGLNELVTGRGYVTEKKNAQLLAEALHTAMNSPEQNKKNVAAGYTYAVSNLSVEKIHEEHIDFFKTV | not soluble
MGSDKIHHHHHHMRILFYCDTVFSFGGVQRVLAEIAKALSGKHEVTILTTDTCTDLSMYGYAESTVRFDSFSYSASSFIERLLCKGYSFLYKHGLPHTRLTSEWYAASFFPSSYKRTLARKINARQCDVVIGVHAFMALHLSAVKSRIRTKTVGWLHNSYEAFFEKETPYLPGLDCFFQVQMGKLDERVVLSHADAGCFFRKMNLCCEVIYNPLTVLPKGRGKKEYRRILAVGRFSFGHKGFDILIKAFSVFVKTHPDWTLEIVGEGPEEALYRSLINEYELEKSIALHPFTKEVQEYYAHSSMYVLSSRWEGFGLVMIEAMAHGLPVIASDLPITRELLKDKDMAVLFETGNIAQLAGCMSYMADRTDWEWMGNKAVEYADTFHIEKVCDSWNNLLKKVVYGTR | not soluble
MGSDKIHHHHHHMRISLGPLVYCWQKQQVMAFYQQVAASQIPLVYLGEAVCSRRRELKWGDYFELARMLKQAGKEVVISTLALIEASSEYTELKRQVDNGEFMIEANDMAAVYLAKEHKLPFVCGASINNYNRASLDILHGFGMQRFVMPVELSKAWLQHVIQNKPAFEVEVFGHGYLPLAHSARCFTARHKQLTKDSCETICRQYSKGLLAQTQEMQPLLRLNGIQTQSAACLDLSSEIAAMNTMGVDVFRVSPSGTESIVRAESLIEALNMPEMALNAPIKGEQCDGYWFGEAGLTIHHAT | not soluble
